{"source": "paper PMC5595714", "about": "“Activation of secondary cell wall biosynthesis by miR319‐targeted TCP4 transcription factor”", "key": {"[1]": {"molecular_target": "T1, rTCP4-HIS (UniProt Q8LPR5 1-420)", "T1 sequence": "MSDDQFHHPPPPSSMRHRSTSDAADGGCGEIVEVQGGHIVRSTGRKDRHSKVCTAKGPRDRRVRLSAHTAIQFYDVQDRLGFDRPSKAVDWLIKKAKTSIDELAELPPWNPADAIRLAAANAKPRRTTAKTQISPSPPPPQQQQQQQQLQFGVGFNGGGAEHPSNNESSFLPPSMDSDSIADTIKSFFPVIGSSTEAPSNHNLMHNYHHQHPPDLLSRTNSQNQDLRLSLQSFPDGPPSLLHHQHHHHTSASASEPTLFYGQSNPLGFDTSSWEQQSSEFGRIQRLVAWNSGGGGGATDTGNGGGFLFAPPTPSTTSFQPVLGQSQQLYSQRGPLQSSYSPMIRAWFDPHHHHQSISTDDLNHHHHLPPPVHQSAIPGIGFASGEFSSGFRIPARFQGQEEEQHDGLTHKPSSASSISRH", "experiment": "EMSA; 20 mM HEPES-KOH pH 7.8, 100 mM KCl, 1 mM EDTA, 0.1% BSA, 10 ng herring sperm DNA, 10% glycerol; 100 fmol probe, 1 ug protein, 20 uL, 30 min, room temperature", "conditions": "protein: recombinant; tags: His (pET32a fusion); chain copies: 2; label: biotin 3'; blunt"}, "[2]": {"molecular_target": "T2, TCP4-HIS (UniProt Q8LPR5 1-420)", "T2 sequence": "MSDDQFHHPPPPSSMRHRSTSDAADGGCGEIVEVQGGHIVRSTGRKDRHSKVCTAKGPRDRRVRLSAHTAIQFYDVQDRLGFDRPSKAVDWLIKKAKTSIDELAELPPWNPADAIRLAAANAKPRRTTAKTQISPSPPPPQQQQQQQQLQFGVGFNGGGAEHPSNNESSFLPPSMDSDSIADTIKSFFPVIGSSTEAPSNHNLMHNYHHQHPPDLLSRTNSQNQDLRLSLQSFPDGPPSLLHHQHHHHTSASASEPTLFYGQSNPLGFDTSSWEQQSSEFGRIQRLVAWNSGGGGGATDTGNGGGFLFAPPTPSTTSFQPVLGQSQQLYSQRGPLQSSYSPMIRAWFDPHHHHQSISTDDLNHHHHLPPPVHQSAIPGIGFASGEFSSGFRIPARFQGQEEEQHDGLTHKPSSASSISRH", "experiment": "EMSA; 20 mM HEPES-KOH pH 7.8, 100 mM KCl, 1 mM EDTA, 0.1% BSA, 10 ng herring sperm DNA, 10% glycerol; 100 fmol probe, 1 ug protein, 20 uL, 30 min, room temperature", "conditions": "protein: recombinant; tags: His (pET32a fusion); chain copies: 2; label: biotin 3'; blunt"}, "[3]": {"molecular_target": "T2, TCP4-HIS", "experiment": "competition; 10x and 50x unlabeled probe against N1, dose-dependent; 20 mM HEPES-KOH pH 7.8, 100 mM KCl, 1 mM EDTA, 0.1% BSA, 10 ng herring sperm DNA, 10% glycerol; 100 fmol probe, 1 ug protein, 20 uL, 30 min, room temperature", "conditions": "protein: recombinant; tags: His (pET32a fusion); chain copies: 2; blunt"}}}
{"binder": "VND7 promoter probe (dsDNA) DNA 1: ATTGTTGGGTGGTCCCATAAAAAT DNA 2: ATTTTTATGGGACCACCCAACAAT", "values": [{"measurement": "binding result", "setting": "[1]", "value": "binds"}, {"measurement": "binding result", "setting": "[2]", "value": "binds"}]}
{"binder": "VND7 promoter cold probe (dsDNA) DNA 1: ATTGTTGGGTGGTCCCATAAAAAT DNA 2: ATTTTTATGGGACCACCCAACAAT", "values": [{"measurement": "binding result", "setting": "[3]", "value": "binds"}]}
